Data from the supplement of paper PMC12764529.
± gives the half width of the 95% confidence interval.

Experiments:
[1] = folding stability dG unfold from chymotrypsin proteolysis; higher = more stable
Outline: (§1)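 How resistant each design was to proteolysis was captured as K50, inferred by Bayesian fitting of sequencing counts. Unfolding free energy was then derived relative to a sequence-predicted unfolded-state K50 and a shared folded-state K50, per protease or combined. Digestion used trypsin and chymotrypsin at 11 threefold-diluted concentrations plus a no-protease condition, on mini-proteins under 80 residues without cysteine in a PA-tagged cDNA display construct. Designs were kept only when AlphaFold2 dimer inter-PAE was above 15.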

[2] = folding stability dG unfold (combined trypsin and chymotrypsin); higher = more stable
Outline: as §1

[3] = folding stability dG unfold from trypsin proteolysis; higher = more stable
Outline: as §1

Row | Sequence | folding stability dG unfold [1] | folding stability dG unfold [2] | folding stability dG unfold [3]
1 | SAGGKPGKWRKVEIWLPPDMPDIIEEIAKNWPNVNVDTERHPENGWYPVTGYFPDPNGKPVAKIHIWSAGGS [r8_267_TrROS] | 0.933 ± 0.17 kcal/mol | 0.65 ± 0.2 kcal/mol | 0.185 ± 0.064 kcal/mol
2 | SAGGKPKEIVIEVELEVVEVNGEKYLVLKAKIIDKETNEVYEVTAVFNLKTGKLVGIEVKKLTVEELKSAGG [r13_772_TrROS_Hall] | 4.9 ± 0.23 kcal/mol | 4.66 ± 0.37 kcal/mol | 3.16 ± 0.25 kcal/mol
3 | SAGGKPKVEIKIEEIPVDGELYLVIEIKVEEKNATLTLTLPNGEEITMEFDEETGTVRIIARIPLEDLSAGG [r13_380_TrROS_Hall] | 3.09 ± 0.15 kcal/mol | 3.12 ± 0.22 kcal/mol | 3.24 ± 0.29 kcal/mol
4 | SAGGKPLEPKIEVEVIPLPSGERVITLRVEVPPNDPLKIKFPGLKKEVEFPGDDEVEFRVVVPPDSFSAGGS [r16_56_TrMRF] | 0.631 ± 0.1 kcal/mol | 0.69 ± 0.14 kcal/mol | 0.662 ± 0.1 kcal/mol
5 | SAGGKPTQTITITLKDGRTLTIKVGQTVTITLDNGKTITVTVKDATITVKDGKVTITVNGKTYTFTVKSAGG [r13_643_TrROS_Hall] | 4.73 ± 0.13 kcal/mol | 4.62 ± 0.23 kcal/mol | 3.45 ± 0.24 kcal/mol
6 | SAGGKPVRIRSSNGWPIEINPEDGTIKVEFPGYEVEFEVKEDGTIQFQIRNPKDGKPIMPMTLQIEKSAGGS [r16_760_TrROS] | 1.07 ± 0.093 kcal/mol | 0.98 ± 0.072 kcal/mol | 0.694 ± 0.049 kcal/mol
7 | SAGGKSVKVSLPKEALKKAKENEKVVITLPDGTKREAILVRGGDSVPVFVVNPDNPEEAEYVGEATVGSAGG [r13_745_TrMRF] | 0.134 ± 0.042 kcal/mol | -0.0228 ± 0.09 kcal/mol | -0.503 ± 0.16 kcal/mol
8 | SAGGKTIEIEVKVPPGMTEEEVAKKLAEELAKELEKKTGKEIKIEIEKVEKLPNGERKVRIKIEVKPSAGGS [r8_156_TrROS_Hall] | 1.8 ± 0.18 kcal/mol | 1.74 ± 0.2 kcal/mol | 1.42 ± 0.035 kcal/mol
9 | SAGGKTIEVEIVVPPDMTPEEVAARLAAALPPGAKIRVEEVREVTGPDGRKYRIFKVTIYDEKTGEPLSAGG [r13_12_TrROS_Hall] | 2.99 ± 0.072 kcal/mol | 3.12 ± 0.16 kcal/mol | 3.61 ± 0.14 kcal/mol
10 | SAGGKTIMHMYMNPNGWFIRAKIKLDPDGKWKITDVEIYPMEMKYEDPNGKPREMPMFMIKIRIKPDSAGGS [r8_270_TrROS] | 4.26 ± 0.046 kcal/mol | 3.78 ± 0.092 kcal/mol | 3.03 ± 0.084 kcal/mol
11 | SAGGKTISIEFYMPPGEPPPSIEEIAKELFPGYKDIKIKNIEIEDVEPDPDNGMKYVRVSFTIEVEPPSAGG [r13_10_TrROS] | 3.42 ± 0.23 kcal/mol | 3.39 ± 0.25 kcal/mol | 3.25 ± 0.27 kcal/mol
12 | SAGGKTIVIELTPEEVEELLKKLLEELKKKAEENPDAKITIVITTPDGRTYTITIDLKTGKITIEELPSAGG [r13_216_TrROS_Hall] | 3.93 ± 0.13 kcal/mol | 3.43 ± 0.1 kcal/mol | 2.39 ± 0.051 kcal/mol
13 | SAGGKTIWIPMPPGDPEKFAKNIADEILEEAQKQGENVDVKITIQYPDGQYMRITIDGNGKIDKIVPWSAGG [r13_965_TrROS] | 0.652 ± 0.31 kcal/mol | 0.636 ± 0.31 kcal/mol | 0.333 ± 0.2 kcal/mol
14 | SAGGKTKVIVVKVKPEMTVEEIAKKLAEELKKKGKKVKVEVKVIEKLPNGELYVKVTVKDGKLTIEPSAGGS [r8_7_TrROS_Hall] | 1.42 ± 0.073 kcal/mol | 1.35 ± 0.19 kcal/mol | 1.12 ± 0.085 kcal/mol
15 | SAGGKTVPIMFPFDSPDQIEEIIEELAKPGFDDVKPERIEPEPPPDGNYYFPVRIEVDPKNGKIEITFSAGG [r13_174_TrROS] | 0.185 ± 0.19 kcal/mol | -0.0243 ± 0.29 kcal/mol | 0.0445 ± 0.13 kcal/mol
16 | SAGGKTVTIKAKSLEDALKAIEALPSVDKVTITVEVNGKTVTITLTVKPPPPVKYELDKNGKLVKKEKSAGG [r13_183_TrROS_Hall] | 1.56 ± 0.086 kcal/mol | 1.28 ± 0.25 kcal/mol | 0.794 ± 0.05 kcal/mol
17 | SAGGKTVVIEAESLEEALAAIEALPPDVKKVVIFNKETGVLVEVTVDPKTGEIKEIKVYKIDPEKGKLSAGG [r13_945_TrROS_Hall] | 2.861 ± 0.026 kcal/mol | 2.54 ± 0.12 kcal/mol | 1.22 ± 0.09 kcal/mol
18 | SAGGKTVVLEFDSVEDLKAALPPGAEVEIVVIREDGSKKTITVPAKDLKLELKPGEKYRVVIKVKPKKSAGG [r13_461_TrROS_Hall] | 2.49 ± 0.084 kcal/mol | 2.17 ± 0.12 kcal/mol | 1.5 ± 0.09 kcal/mol
19 | SAGGKTYKIKVTVEVKNENGETEKKEYVIEVKENKTPEEIAEELKKKLGVEKVEIVDPKTGKKYTIELSAGG [r13_663_TrROS_Hall] | 3.185 ± 0.029 kcal/mol | 2.83 ± 0.084 kcal/mol | 1.9 ± 0.052 kcal/mol
20 | SAGGKVSVEVRGNGPGSYVALWLPGPGTVIAREFEDGDRFDDLPEDAEPSRVVFFGYDGVPEEFELGSAGGS [r8_487_TrMRF] | 0.487 ± 0.071 kcal/mol | 0.449 ± 0.043 kcal/mol | 0.32 ± 0.032 kcal/mol
21 | SAGGKVVKTKEEAEKLVKEGKAEVVSVKKVKVPVNGKEKEVEVLEVKIKDKKTKKEKTIVLTKEQLKSAGGS [r16_271_TrROS_Hall] | -0.863 ± 0.27 kcal/mol | -0.894 ± 0.78 kcal/mol | -0.319 ± 0.36 kcal/mol
22 | SAGGKVVVLTFPKDNPEEVREALAKLPNVVRVEVEKVNDRYLAVAELEGELAVFVSLPDGRYVLLVLGSAGG [r13_907_TrMRF] | 2.994 ± 0.021 kcal/mol | 2.73 ± 0.043 kcal/mol | 2.36 ± 0.091 kcal/mol
23 | SAGGKWKPIGKFEFTLPDGVKVTVTVEENPPLELKITAEVEIYVPPPKPPVPPLGPEEVKKWLEENKSAGGS [r16_6_TrMRF] | 1.86 ± 0.05 kcal/mol | 1.8 ± 0.2 kcal/mol | 1.87 ± 0.12 kcal/mol
24 | SAGGKYTFTPAPPNSESEVVKKAEELKKKLAEEPGVDKKIEIEIKPSPDGSLTIKVTFSTGTYDAAASAGGS [r16_356_JUSTAS] | 1.32 ± 0.094 kcal/mol | 0.942 ± 0.12 kcal/mol | 0.514 ± 0.027 kcal/mol
25 | SAGGKYVIIMFPLPPNLEVEIEYPGVPVHRTPNGSLMFQIPPNEPIRIKIKNPNGEEEELPINIFPLSAGGS [r8_72_TrROS] | 2.33 ± 0.1 kcal/mol | 2.2 ± 0.2 kcal/mol | 1.77 ± 0.1 kcal/mol
26 | SAGGKYVMFPFDSPEDLKDLLPPGYPVEIHMMPPKGKHRTRTFTPDEIKLELPPGENFYFMIKVKPPDSAGG [r13_461_TrROS] | 1.94 ± 0.33 kcal/mol | 1.74 ± 0.2 kcal/mol | 1.55 ± 0.16 kcal/mol
